Measurements reported in publication PMC8764530, “Pseudomonas aeruginosa C-Terminal Processing Protease CtpA Assembles into a Hexameric Structure That Requires Activation by a Spiral-Shaped Lipoprotein-Binding Partner” (mBio, 2022).
Changes are numbered by the printed parent chain. In names and notes the source's numbering stands.

B1: CtpA(ΔC6) (enzyme)
chain: SAPLPLDELRTFAEVLDRVKAAYVEPVDDKTLLENAIKGMLSNLDPHSAYLGPEDFAELQESTSGEFGGLGIEVGSEDGFIKVVSPIDDTPAARAGIQPGDLIVQIDGKPTKGQSMTEAVDSMRGKAGSPITLTIVRDGGRPFDVELKRAIIKVKSVKSQVLEPGYAYLRITQFQVNTGEEVVKALNQLRKDNKGRLKGLVLDLRNNPGGVLQSAVEVADAFLTKGLIVYTKGRIANSELRFSADPADPSDKVPLVVLINGGSASAAEIVAGALQDQKRAILMGTDSFGKGSVQTVLPLNNDRALKLTTALYYTPNGRSIQAQGIVPDIEVGRAKVTQERSSFEGFKEADLQGHLANGNGGADRPTGKRAAPSERPQDSDYQLSQALSLLKGL
notes: Pseudomonas aeruginosa CtpA, ΔN37 construct (from amino acid 38) with the last six residues Ser-431 to Asn-436 removed; also called CtpA(ΔC6) dimer; source: E. coli BL21(DE3), purified (HiTrap-Ni, thrombin, HiTrap-Q, Superdex 200); not shown: His6, N-terminal, cleaved
B2: CtpA-L426K L430K (enzyme)
chain: SAPLPLDELRTFAEVLDRVKAAYVEPVDDKTLLENAIKGMLSNLDPHSAYLGPEDFAELQESTSGEFGGLGIEVGSEDGFIKVVSPIDDTPAARAGIQPGDLIVQIDGKPTKGQSMTEAVDSMRGKAGSPITLTIVRDGGRPFDVELKRAIIKVKSVKSQVLEPGYAYLRITQFQVNTGEEVVKALNQLRKDNKGRLKGLVLDLRNNPGGVLQSAVEVADAFLTKGLIVYTKGRIANSELRFSADPADPSDKVPLVVLINGGSASAAEIVAGALQDQKRAILMGTDSFGKGSVQTVLPLNNDRALKLTTALYYTPNGRSIQAQGIVPDIEVGRAKVTQERSSFEGFKEADLQGHLANGNGGADRPTGKRAAPSERPQDSDYQLSQALSKLKGKSVTRGN
notes: Pseudomonas aeruginosa CtpA, ΔN37 construct (amino acid 38 to the C terminus, Asn-436) with L426K and L430K; also called LLKK; source: E. coli BL21(DE3), purified (HiTrap-Ni, thrombin, HiTrap-Q, Superdex 200); not shown: His6, N-terminal, cleaved
B3: CtpA-L426A L430A (enzyme)
chain: B2 chain with K389A, K393A
notes: Pseudomonas aeruginosa CtpA, ΔN37 construct (amino acid 38 to the C terminus, Asn-436) with L426A and L430A; also called LLAA; source: E. coli BL21(DE3), purified (HiTrap-Ni, thrombin, HiTrap-Q, Superdex 200); not shown: His6, N-terminal, cleaved

Target: the molecule itself
Experiment: SEC; gel filtration of CtpA proteins, Superdex 200 prep-grade (16 × 600 mm), 10 mM Tris pH 8.0, 150 mM NaCl

Protein	stoichiometry N
B1	2
B2	~2
B3	~2
